Experimental data published in patent US6677130.

Target: T1, GST-ATF2 substrate, P15336
T1 chain: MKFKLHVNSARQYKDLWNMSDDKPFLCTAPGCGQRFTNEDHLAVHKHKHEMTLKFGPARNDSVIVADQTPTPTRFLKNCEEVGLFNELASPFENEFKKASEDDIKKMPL

B1: epitope-tagged p38-2 (3xHA-p38-2) (protein)
chain: MSGPRAGFYRQELNKTVWEVPQRLQGLRPVGSGAYGSVCSAYDARLRQKVAVKKLSRPFQSLIHARRTYRELRLLKHLKHENVIGLLDVFTPATSLEDFSEVYLVTTLMGADLNNIVKCQALSDEHVQFLVYQLLRGLKYIHSAGIIHRDLKPSNVAVNEDCELRILDFGLARQADEEMTGYVATRWYRAPEIMLNWMHYNQTVDIWSVGCIMAELLQGKALFPGSDYIDQLKRIMEVVGTPSPEVLAKISSEHARTYIQSLPPMPQKDLSSIFRGANPLAIDLLGRMLVLDSDQRVSAAEALAHAYFSQYHDPEDEPEAEPYDEGVEAKERTLEEWKELTYQEVLSFKPPEPPKPPGSLEIEQ
- phosphorylation of GST-ATF2 by immunoprecipitated HA-p38-2 ([gamma-32P]ATP, SDS-PAGE, autoradiography): the inducible phosphorylation of ATF2 depends on a kinase cascade comprised of MEK6 and p38-2
